Test results published in IntAct's records for PubMed 22270917.

B1: Focal adhesion kinase 1 (Homo sapiens), Q05397 (parent)
chain: MAAAYLDPNLNHTPNSSTKTHLGTGMERSPGAMERVLKVFHYFESNSEPTTWASIIRHGDATDVRGIIQKIVDSHKVKHVACYGFRLSHLRSEEVHWLHVDMGVSSVREKYELAHPPEEWKYELRIRYLPKGFLNQFTEDKPTLNFFYQQVKSDYMLEIADQVDQEIALKLGCLEIRRSYWEMRGNALEKKSNYEVLEKDVGLKRFFPKSLLDSVKAKTLRKLIQQTFRQFANLNREESILKFFEILSPVYRFDKECFKCALGSSWIISVELAIGPEEGISYLTDKGCNPTHLADFTQVQTIQYSNSEDKDRKGMLQLKIAGAPEPLTVTAPSLTIAENMADLIDGYCRLVNGTSQSFIIRPQKEGERALPSIPKLANSEKQGMRTHAVSVSETDDYAEIIDEEDTYTMPSTRDYEIQRERIELGRCIGEGQFGDVHQGIYMSPENPALAVAIKTCKNCTSDSVREKFLQEALTMRQFDHPHIVKLIGVITENPVWIIMELCTLGELRSFLQVRKYSLDLASLILYAYQLSTALAYLESKRFVHRDIAARNVLVSSNDCVKLGDFGLSRYMEDSTYYKASKGKLPIKWMAPESINFRRFTSASDVWMFGVCMWEILMHGVKPFQGVKNNDVIGRIENGERLPMPPNCPPTLYSLMTKCWAYDPSRRPRFTELKAQLSTILEEEKAQQEERMRMESRRQATVSWDSGGSDEAPPKPSRPGYPSPRSSEGFYPSPQHMVQTNHYQVSGYPGSHGITAMAGSIYPGQASLLDQTDSWNHRPQEIAMWQPNVEDSTVLDLRGIGQVLPTHLMEERLIRQQQEMEEDQRWLEKEERFLKPDVRLSRGSIDREDGSLQGPIGNQHIYQPVGKPDPAAPPKKPPRPGAPGHLGSLASLSSPADSYNEGVKLQPQEISPPPTANLDRSNDKVYENVTGLVKAVIEMSSKIQPAPPEEYVPMVKEVGLALRTLLATVDETIPLLPASTHREIEMAQKLLNSDLGELINKMKLAQQYVMTSLQQEYKKQMLTAAHALAVDAKNLLDVIDQARLKMLGQTRPH

Variants of: B1
Conditions: with tln1_chick TLN1, P54939
tln1_chick TLN1, P54939, sequence (P54939 whole entry): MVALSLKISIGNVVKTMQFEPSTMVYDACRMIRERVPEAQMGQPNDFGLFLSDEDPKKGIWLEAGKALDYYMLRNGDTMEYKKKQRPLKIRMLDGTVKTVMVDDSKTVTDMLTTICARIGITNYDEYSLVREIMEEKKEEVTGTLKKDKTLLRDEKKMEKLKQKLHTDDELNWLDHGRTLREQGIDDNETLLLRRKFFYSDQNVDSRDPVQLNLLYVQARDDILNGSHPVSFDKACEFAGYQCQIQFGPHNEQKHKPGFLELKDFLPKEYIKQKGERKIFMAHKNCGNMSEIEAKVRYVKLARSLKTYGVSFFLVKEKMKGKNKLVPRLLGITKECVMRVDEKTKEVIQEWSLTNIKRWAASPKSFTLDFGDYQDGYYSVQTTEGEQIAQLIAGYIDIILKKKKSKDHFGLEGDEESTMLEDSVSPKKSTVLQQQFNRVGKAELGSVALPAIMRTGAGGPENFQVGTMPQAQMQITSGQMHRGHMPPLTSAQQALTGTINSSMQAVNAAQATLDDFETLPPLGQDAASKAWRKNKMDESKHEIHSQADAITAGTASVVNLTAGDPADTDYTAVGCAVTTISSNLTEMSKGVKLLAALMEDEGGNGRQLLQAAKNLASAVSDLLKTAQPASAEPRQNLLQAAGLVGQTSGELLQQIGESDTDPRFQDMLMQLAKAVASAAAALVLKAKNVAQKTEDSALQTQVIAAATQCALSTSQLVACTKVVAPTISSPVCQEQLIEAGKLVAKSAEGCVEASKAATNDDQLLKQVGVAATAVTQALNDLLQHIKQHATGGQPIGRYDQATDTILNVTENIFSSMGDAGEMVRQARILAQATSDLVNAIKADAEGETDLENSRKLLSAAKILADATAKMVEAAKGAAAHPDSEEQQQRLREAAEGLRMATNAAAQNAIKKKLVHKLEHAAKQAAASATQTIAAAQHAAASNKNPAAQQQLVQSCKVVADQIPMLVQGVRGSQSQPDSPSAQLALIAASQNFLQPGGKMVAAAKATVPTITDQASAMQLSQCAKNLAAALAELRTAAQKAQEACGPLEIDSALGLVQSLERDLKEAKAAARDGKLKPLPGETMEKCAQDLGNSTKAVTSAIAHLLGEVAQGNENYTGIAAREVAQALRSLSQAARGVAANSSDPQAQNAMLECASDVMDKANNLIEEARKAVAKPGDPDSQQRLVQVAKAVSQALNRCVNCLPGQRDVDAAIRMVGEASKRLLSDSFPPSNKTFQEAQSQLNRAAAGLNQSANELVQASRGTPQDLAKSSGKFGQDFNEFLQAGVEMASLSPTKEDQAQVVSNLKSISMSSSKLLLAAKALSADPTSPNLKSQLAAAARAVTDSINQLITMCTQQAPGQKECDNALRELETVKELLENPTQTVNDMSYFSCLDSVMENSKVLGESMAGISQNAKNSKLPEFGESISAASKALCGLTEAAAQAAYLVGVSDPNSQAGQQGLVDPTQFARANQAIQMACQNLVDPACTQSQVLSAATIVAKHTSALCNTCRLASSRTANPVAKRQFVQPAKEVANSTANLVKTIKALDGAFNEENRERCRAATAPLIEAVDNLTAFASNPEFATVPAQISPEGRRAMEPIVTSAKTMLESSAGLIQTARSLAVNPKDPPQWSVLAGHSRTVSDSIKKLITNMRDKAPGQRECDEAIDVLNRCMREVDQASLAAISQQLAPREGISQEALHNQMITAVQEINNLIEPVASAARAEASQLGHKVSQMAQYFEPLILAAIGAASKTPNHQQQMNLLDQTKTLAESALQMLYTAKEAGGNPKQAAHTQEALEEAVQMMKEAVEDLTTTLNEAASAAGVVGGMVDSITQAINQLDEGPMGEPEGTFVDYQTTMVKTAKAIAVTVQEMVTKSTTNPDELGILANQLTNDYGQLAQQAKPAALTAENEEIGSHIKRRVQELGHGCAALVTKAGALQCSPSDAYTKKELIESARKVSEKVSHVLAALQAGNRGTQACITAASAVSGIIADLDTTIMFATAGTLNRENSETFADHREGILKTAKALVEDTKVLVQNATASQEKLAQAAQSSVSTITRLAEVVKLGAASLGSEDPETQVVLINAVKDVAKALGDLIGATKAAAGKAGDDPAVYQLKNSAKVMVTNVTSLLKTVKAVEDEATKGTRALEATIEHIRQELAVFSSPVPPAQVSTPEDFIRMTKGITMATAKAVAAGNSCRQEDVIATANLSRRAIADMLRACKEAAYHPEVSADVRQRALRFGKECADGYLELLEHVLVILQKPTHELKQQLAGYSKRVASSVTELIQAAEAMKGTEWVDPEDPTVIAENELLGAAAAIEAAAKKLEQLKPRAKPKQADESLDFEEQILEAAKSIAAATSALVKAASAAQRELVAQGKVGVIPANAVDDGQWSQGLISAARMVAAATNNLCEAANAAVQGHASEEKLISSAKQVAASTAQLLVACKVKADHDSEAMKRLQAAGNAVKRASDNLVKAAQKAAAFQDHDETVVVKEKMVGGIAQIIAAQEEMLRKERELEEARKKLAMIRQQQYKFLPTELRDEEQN

Variant | effect of a mutation on the interaction
E1015A | disrupting interaction
